According to the Human Domainome abundance scans (Beltran et al. 2025):
± gives the uncertainty stated by the source.

B1: KAT8 regulatory NSL complex subunit 2, residues 28 to 91; numbered along this chain, Q9H9L4 (parent)
chain: CAFTHRPCSHPRLEGQEFCIKHILEDKNAPFKQCSYISTKNGKRCPNAAPKPEKKDGVSFCAEH

Variants of: B1
Assay: abundance fitness (aPCA) (normalised: wild type 0, dead -1); higher = more abundant; growth selection in yeast, the domain comes from the species named
Details: Homo sapiens

Variant	abundance fitness
CAFTHRPCSHPRLEGQEFCIKHILEDKNAPFKQCSYWSTKNGKRCPNAAPKPEKKDGVSFCAEH [I37W]	-0.127 ± 0.052
CAFTHRPCSHPRLEGQEFCIKHILEDKNAPFKQCSYYSTKNGKRCPNAAPKPEKKDGVSFCAEH [I37Y]	-0.137 ± 0.098
CAFTHRPCSHPRLEGQEFCIKHILEDKNAPFKQCSYIATKNGKRCPNAAPKPEKKDGVSFCAEH [S38A]	-0.002 ± 0.058
CAFTHRPCSHPRLEGQEFCIKHILEDKNAPFKQCSYICTKNGKRCPNAAPKPEKKDGVSFCAEH [S38C]	-0.026 ± 0.076
CAFTHRPCSHPRLEGQEFCIKHILEDKNAPFKQCSYIETKNGKRCPNAAPKPEKKDGVSFCAEH [S38E]	-0.059 ± 0.081
CAFTHRPCSHPRLEGQEFCIKHILEDKNAPFKQCSYIFTKNGKRCPNAAPKPEKKDGVSFCAEH [S38F]	-0.038 ± 0.075
CAFTHRPCSHPRLEGQEFCIKHILEDKNAPFKQCSYIGTKNGKRCPNAAPKPEKKDGVSFCAEH [S38G]	-0.048 ± 0.058
CAFTHRPCSHPRLEGQEFCIKHILEDKNAPFKQCSYIHTKNGKRCPNAAPKPEKKDGVSFCAEH [S38H]	-0.111 ± 0.085
CAFTHRPCSHPRLEGQEFCIKHILEDKNAPFKQCSYIITKNGKRCPNAAPKPEKKDGVSFCAEH [S38I]	-0.348 ± 0.15
CAFTHRPCSHPRLEGQEFCIKHILEDKNAPFKQCSYIKTKNGKRCPNAAPKPEKKDGVSFCAEH [S38K]	-0.084 ± 0.11
CAFTHRPCSHPRLEGQEFCIKHILEDKNAPFKQCSYILTKNGKRCPNAAPKPEKKDGVSFCAEH [S38L]	-0.076 ± 0.05
CAFTHRPCSHPRLEGQEFCIKHILEDKNAPFKQCSYIMTKNGKRCPNAAPKPEKKDGVSFCAEH [S38M]	-0.159 ± 0.1
CAFTHRPCSHPRLEGQEFCIKHILEDKNAPFKQCSYINTKNGKRCPNAAPKPEKKDGVSFCAEH [S38N]	-0.122 ± 0.062
CAFTHRPCSHPRLEGQEFCIKHILEDKNAPFKQCSYIPTKNGKRCPNAAPKPEKKDGVSFCAEH [S38P]	-0.028 ± 0.067
CAFTHRPCSHPRLEGQEFCIKHILEDKNAPFKQCSYIQTKNGKRCPNAAPKPEKKDGVSFCAEH [S38Q]	-0.08 ± 0.08
CAFTHRPCSHPRLEGQEFCIKHILEDKNAPFKQCSYIRTKNGKRCPNAAPKPEKKDGVSFCAEH [S38R]	-0.06 ± 0.049
CAFTHRPCSHPRLEGQEFCIKHILEDKNAPFKQCSYITTKNGKRCPNAAPKPEKKDGVSFCAEH [S38T]	-0.104 ± 0.064
CAFTHRPCSHPRLEGQEFCIKHILEDKNAPFKQCSYIVTKNGKRCPNAAPKPEKKDGVSFCAEH [S38V]	-0.024 ± 0.051
CAFTHRPCSHPRLEGQEFCIKHILEDKNAPFKQCSYIWTKNGKRCPNAAPKPEKKDGVSFCAEH [S38W]	-0.076 ± 0.05
CAFTHRPCSHPRLEGQEFCIKHILEDKNAPFKQCSYIYTKNGKRCPNAAPKPEKKDGVSFCAEH [S38Y]	-0.065 ± 0.1
CAFTHRPCSHPRLEGQEFCIKHILEDKNAPFKQCSYISAKNGKRCPNAAPKPEKKDGVSFCAEH [T39A]	-0.13 ± 0.07

Variant	abundance fitness
CAFTHRPCSHPRLEGQEFCIKHILEDKNAPFKQCSYISCKNGKRCPNAAPKPEKKDGVSFCAEH [T39C]	-0.205 ± 0.073
CAFTHRPCSHPRLEGQEFCIKHILEDKNAPFKQCSYISDKNGKRCPNAAPKPEKKDGVSFCAEH [T39D]	-0.101 ± 0.075
CAFTHRPCSHPRLEGQEFCIKHILEDKNAPFKQCSYISEKNGKRCPNAAPKPEKKDGVSFCAEH [T39E]	0.003 ± 0.33
CAFTHRPCSHPRLEGQEFCIKHILEDKNAPFKQCSYISFKNGKRCPNAAPKPEKKDGVSFCAEH [T39F]	-0.105 ± 0.075
CAFTHRPCSHPRLEGQEFCIKHILEDKNAPFKQCSYISHKNGKRCPNAAPKPEKKDGVSFCAEH [T39H]	-0.091 ± 0.067
CAFTHRPCSHPRLEGQEFCIKHILEDKNAPFKQCSYISIKNGKRCPNAAPKPEKKDGVSFCAEH [T39I]	-0.123 ± 0.066
CAFTHRPCSHPRLEGQEFCIKHILEDKNAPFKQCSYISKKNGKRCPNAAPKPEKKDGVSFCAEH [T39K]	-0.087 ± 0.13
CAFTHRPCSHPRLEGQEFCIKHILEDKNAPFKQCSYISLKNGKRCPNAAPKPEKKDGVSFCAEH [T39L]	-0.209 ± 0.072
CAFTHRPCSHPRLEGQEFCIKHILEDKNAPFKQCSYISMKNGKRCPNAAPKPEKKDGVSFCAEH [T39M]	-0.165 ± 0.083
CAFTHRPCSHPRLEGQEFCIKHILEDKNAPFKQCSYISNKNGKRCPNAAPKPEKKDGVSFCAEH [T39N]	-0.049 ± 0.061
CAFTHRPCSHPRLEGQEFCIKHILEDKNAPFKQCSYISPKNGKRCPNAAPKPEKKDGVSFCAEH [T39P]	-0.207 ± 0.083
CAFTHRPCSHPRLEGQEFCIKHILEDKNAPFKQCSYISRKNGKRCPNAAPKPEKKDGVSFCAEH [T39R]	-0.105 ± 0.14
CAFTHRPCSHPRLEGQEFCIKHILEDKNAPFKQCSYISSKNGKRCPNAAPKPEKKDGVSFCAEH [T39S]	-0.112 ± 0.052
CAFTHRPCSHPRLEGQEFCIKHILEDKNAPFKQCSYISVKNGKRCPNAAPKPEKKDGVSFCAEH [T39V]	-0.097 ± 0.082
CAFTHRPCSHPRLEGQEFCIKHILEDKNAPFKQCSYISWKNGKRCPNAAPKPEKKDGVSFCAEH [T39W]	-0.57 ± 0.15
CAFTHRPCSHPRLEGQEFCIKHILEDKNAPFKQCSYISYKNGKRCPNAAPKPEKKDGVSFCAEH [T39Y]	-0.237 ± 0.16
CAFTHRPCSHPRLEGQEFCIKHILEDKNAPFKQCSYISTDNGKRCPNAAPKPEKKDGVSFCAEH [K40D]	-0.14 ± 0.17
CAFTHRPCSHPRLEGQEFCIKHILEDKNAPFKQCSYISTFNGKRCPNAAPKPEKKDGVSFCAEH [K40F]	-0.037 ± 0.23
CAFTHRPCSHPRLEGQEFCIKHILEDKNAPFKQCSYISTGNGKRCPNAAPKPEKKDGVSFCAEH [K40G]	-0.196 ± 0.29
CAFTHRPCSHPRLEGQEFCIKHILEDKNAPFKQCSYISTLNGKRCPNAAPKPEKKDGVSFCAEH [K40L]	0.184 ± 0.32
CAFTHRPCSHPRLEGQEFCIKHILEDKNAPFKQCSYISTSNGKRCPNAAPKPEKKDGVSFCAEH [K40S]	-0.299 ± 0.43
